Experiments:
[1] = target: Small Hepatitis B surface Antigen (S-HBsAg), HBV subtype not stated (Hepatitis B virus); experiment: cell-based or functional assay
[2] = target: Small Hepatitis B surface Antigen (S-HBsAg), HBV subtype ayw (Hepatitis B virus, subtype ayw, UniProt P03138 1-226); experiment: cell-based or functional assay
Sequence of Small Hepatitis B surface Antigen (S-HBsAg), HBV subtype ayw (P03138 164-389): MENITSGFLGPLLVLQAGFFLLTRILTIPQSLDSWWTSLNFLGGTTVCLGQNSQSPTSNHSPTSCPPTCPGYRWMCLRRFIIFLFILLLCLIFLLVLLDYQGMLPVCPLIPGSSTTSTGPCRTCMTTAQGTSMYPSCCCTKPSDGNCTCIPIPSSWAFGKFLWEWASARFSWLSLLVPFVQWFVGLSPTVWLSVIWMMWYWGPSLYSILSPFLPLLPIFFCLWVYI

B1: bivalent, soluble H015 (antibody, V domains shown)
VH: QVQLVESGGGVAQPGRSLRLSCAASGFSFSRHGMHWVRQAPGKGLEWVAGIWFDGTNDYYTDSVKGRFTISRDNSRSTLYLDINSLRAEDTAVYYCAREDPHLLIATLDLWGLGTLVTVSS
VL: DIQVTQSPSSLSAFVGDRVTITCRASQGLTSFINWYQQKPGRAPKLLISSASSLQRGVPSRFTASGSGTHFTLTISSLQPEDFATYYCQQSYGTPALAFGGGTKVDIK
[1]
  IC50, in vitro HDV neutralization in primary human hepatocytes (HDV RNA): 0.113 nM
[2]
  IC50, in vitro HBV neutralization assay, HepG2-NTCP cells, ayw subtype: 0.0836 nM

From patent US20240391979A1 (ACHELOIS BIOPHARMA, published 2024)
